Data on 2 molecules can be found in patent US20250289897A1 (Eli Lilly, published 2025).

Assay [1] concerns the target T1, CYNO LEPR-ECD-His (cynomolgus monkey, UniProt Q9MYL0 22-837 (rhesus entry)).
T1 construct: also called cynomolgus monkey LEPR
T1 sequence: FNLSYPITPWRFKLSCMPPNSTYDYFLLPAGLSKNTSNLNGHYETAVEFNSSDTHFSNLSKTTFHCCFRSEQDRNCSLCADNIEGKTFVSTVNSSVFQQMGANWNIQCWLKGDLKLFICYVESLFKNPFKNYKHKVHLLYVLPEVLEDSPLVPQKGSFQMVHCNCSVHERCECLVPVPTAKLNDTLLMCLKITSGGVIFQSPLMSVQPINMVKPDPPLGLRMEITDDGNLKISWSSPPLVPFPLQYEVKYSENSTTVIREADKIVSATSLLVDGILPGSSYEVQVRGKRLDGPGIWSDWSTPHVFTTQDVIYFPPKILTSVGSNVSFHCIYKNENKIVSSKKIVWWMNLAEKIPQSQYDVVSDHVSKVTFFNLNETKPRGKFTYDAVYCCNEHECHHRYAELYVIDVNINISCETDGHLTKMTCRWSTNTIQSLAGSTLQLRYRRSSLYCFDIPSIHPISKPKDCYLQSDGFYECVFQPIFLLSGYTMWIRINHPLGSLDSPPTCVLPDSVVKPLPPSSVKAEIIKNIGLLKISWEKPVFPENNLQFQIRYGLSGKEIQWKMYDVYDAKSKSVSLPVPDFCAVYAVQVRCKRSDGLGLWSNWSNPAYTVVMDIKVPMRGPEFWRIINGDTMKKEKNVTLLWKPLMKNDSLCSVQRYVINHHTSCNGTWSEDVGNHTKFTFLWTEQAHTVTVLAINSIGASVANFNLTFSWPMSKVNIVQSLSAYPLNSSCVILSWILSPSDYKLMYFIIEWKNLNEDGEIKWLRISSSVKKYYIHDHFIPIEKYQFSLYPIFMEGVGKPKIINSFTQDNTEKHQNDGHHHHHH
The assay is described as follows: SPR (Biacore T200), antibody captured on Protein A/G chip, His-tagged LEPR-ECD as analyte, 1:1 fit; mean n=3, SD 2.0E-9. For orientation: Surface plasmon resonance follows binding to a sensor surface in real time, without labels.
Procedure: (§1) His-tagged ECDs were expressed and purified for each species and used for affinity analysis. A Protein A/G chip (Xantec, Cat #PAGHC200M) was utilized in this experiment with HBS-EP +0.01% BSA as running buffer. Antibodies were diluted to 1 μg/mL in running buffer and captured to a single flow cell on the chip surface. Each species of LEPR-ECD was diluted to 1000 nM in running buffer followed by 2-fold serial dilution. Each ligand concentration was injected over all flow cells at 100 L/min for 150 seconds followed by a 600 second dissociation phase. Regeneration was performed by injecting 10 mM glycine pH1.5 for 30 seconds at 10 μL/min. Data were analyzed in Biacore T200 Evaluation Software 3.1 by flow-cell 1 reference subtraction along with 0 nM blank subtraction. Data were fit globally using a “1:1 Binding” binding model to determine the on-rate (kₐ) and off-rate (kd) for each ligand. The affinity (KD) was calculated from the binding kinetics according to the relationship KD=kₐ/kd. Data reported as mean±standard deviation of experimental replicates.

The target in assay [2] is T2, canine LEPR-ECD-His (canine).
T2 chain: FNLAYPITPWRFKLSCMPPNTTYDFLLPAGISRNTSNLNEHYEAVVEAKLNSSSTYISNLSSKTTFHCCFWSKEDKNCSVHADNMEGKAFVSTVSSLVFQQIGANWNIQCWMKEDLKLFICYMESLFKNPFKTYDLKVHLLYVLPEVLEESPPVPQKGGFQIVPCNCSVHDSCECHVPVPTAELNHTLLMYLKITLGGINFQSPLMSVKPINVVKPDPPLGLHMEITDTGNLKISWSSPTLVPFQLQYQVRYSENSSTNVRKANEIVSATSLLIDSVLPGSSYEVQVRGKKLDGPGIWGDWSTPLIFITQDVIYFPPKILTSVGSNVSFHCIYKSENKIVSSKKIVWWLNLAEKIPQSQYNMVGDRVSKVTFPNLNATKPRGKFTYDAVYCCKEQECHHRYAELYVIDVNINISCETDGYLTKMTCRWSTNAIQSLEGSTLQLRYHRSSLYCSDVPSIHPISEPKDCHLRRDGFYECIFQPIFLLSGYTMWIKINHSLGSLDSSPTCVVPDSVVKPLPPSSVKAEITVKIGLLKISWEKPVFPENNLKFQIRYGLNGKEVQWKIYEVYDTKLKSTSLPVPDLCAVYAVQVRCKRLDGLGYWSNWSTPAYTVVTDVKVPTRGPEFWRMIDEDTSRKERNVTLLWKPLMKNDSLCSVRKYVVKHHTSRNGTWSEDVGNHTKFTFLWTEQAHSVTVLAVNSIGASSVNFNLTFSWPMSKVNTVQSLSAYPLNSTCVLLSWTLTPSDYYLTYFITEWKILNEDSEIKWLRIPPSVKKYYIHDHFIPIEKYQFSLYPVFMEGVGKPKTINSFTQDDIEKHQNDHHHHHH
The assay is described as follows: SPR (Biacore T200), antibody captured on Protein A/G chip, His-tagged LEPR-ECD as analyte, 1:1 fit; mean n=3, SD 2.4E-8.
Procedure: as §1

The target in assay [3] is T3, human LEPR-ECD-His (human, UniProt P48357 22-839).
T3 sequence: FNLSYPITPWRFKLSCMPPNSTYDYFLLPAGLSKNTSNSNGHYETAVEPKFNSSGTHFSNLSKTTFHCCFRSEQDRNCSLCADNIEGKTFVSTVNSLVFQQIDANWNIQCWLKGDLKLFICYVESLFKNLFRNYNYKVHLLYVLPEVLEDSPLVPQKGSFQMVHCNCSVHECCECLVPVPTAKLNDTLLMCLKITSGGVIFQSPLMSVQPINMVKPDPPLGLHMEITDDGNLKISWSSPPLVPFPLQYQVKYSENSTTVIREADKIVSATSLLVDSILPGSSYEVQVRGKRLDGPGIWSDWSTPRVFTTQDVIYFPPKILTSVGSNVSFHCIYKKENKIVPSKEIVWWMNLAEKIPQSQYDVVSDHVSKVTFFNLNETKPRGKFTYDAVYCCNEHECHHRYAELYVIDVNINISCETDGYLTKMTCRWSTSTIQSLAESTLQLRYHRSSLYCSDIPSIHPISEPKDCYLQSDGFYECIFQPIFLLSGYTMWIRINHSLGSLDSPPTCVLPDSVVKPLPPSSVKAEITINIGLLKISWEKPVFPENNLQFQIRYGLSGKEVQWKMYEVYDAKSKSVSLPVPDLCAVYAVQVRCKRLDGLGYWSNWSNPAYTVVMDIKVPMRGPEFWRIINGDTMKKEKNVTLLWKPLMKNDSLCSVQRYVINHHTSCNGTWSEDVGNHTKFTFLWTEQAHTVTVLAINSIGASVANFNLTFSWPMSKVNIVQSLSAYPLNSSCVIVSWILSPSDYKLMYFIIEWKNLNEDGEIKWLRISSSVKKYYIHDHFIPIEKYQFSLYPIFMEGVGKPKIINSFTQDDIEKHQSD
The assay is described as follows: SPR (Biacore T200), antibody captured on Protein A/G chip, His-tagged LEPR-ECD as analyte, 1:1 fit; mean n=3, SD 6.8E-9.
Procedure: as §1

By Kd is commonly meant the free concentration of one partner at which half of the binding sites on the other are occupied at equilibrium, for simple one-to-one binding.

B1: Antibody A (antibody, human IgG1, kappa, L234A L235A)
heavy: EVQLLESGGGLVQPGGSLRLSCAASGFTFSSFAMSWVRQAPGKGLEWVSAISGSGGSTYSADSVRGRFTISRDNSKNTLYLQMNSLRAEDTAVYYCAKDQGDWDFLFDYWGQGTLVTVSSASTKGPSVFPLAPSSKSTSGGTAALGCLVKDYFPEPVTVSWNSGALTSGVHTFPAVLQSSGLYSLSSVVTVPSSSLGTQTYICNVNHKPSNTKVDKRVEPKSCDKTHTCPPCPAPEAAGGPSVFLFPPKPKDTLYITREPEVTCVVVSVSHEDPEVKFNWYVDGVEVHNAKTKPREEQYNSTYRVVSVLTVLHQDWLNGKEYKCKVSNKALPAPIEKTISKAKGQPREPQVYTLPPSREEMTKNQVSLTCLVKGFYPSDIAVEWESNGQPENNYKTTPPVLDSDGSFFLYSKLTVDKSRWQQGNVFSCSVMHEALHNHYTQKSLSLSPGK
light: DIQMTQSPSFLSASVGDRVTITCRASQGISSSLAWYQQKPGKAPKLLIYTASTLQSGVPSRFSGSGSGTEFTLTISSLQPEDFATYYCQQLIYYPFTFGQGTKVEIKRTVAAPSVFIFPPSDEQLKSGTASVVCLLNNFYPREAKVQWKVDNALQSGNSQESVTEQDSKDSTYSLSSTLTLSKADYEKHKVYACEVTHQGLSSPVTKSFNRGEC
notes: IgG1 mAb
As to B1, the Kd in assay [1] turned out to be 19 nM; in assay [2], 130 nM.

B2: Antibody B (antibody, human IgG1, kappa, L234A L235A, V domains shown)
VH: EVQLLESGGGLVQPGGSLRLSCAASGFTFSSFAMSWVRQAPGKGLEWVSAISGSGGSTYSADSVRGRFTISRDNSKNTLYLQMNSLRAEDTAVYYCAKDQGDWDFLFDYWGQGTLVTVSS
VL: DIQMTQSPSFLSASVGDRVTITCRVSQGISSSLAWYQQKPGKAPKLLIYTASTLQSGVPSRFSGSGSGTEFTLTISSLQPEDFATYYCQQLNYYPFTFGQGTKVEIKR
B2 gave a Kd in assay [3] of 22 nM.
